# Experimental data taken from article PMC3378870 (Nucleic Acids Research, 2012).
# T1: VapC Y72A variant (Salmonella enterica serovar Typhimurium …, UniProt Q8ZM86 1-132, Y72A)
# T1 sequence: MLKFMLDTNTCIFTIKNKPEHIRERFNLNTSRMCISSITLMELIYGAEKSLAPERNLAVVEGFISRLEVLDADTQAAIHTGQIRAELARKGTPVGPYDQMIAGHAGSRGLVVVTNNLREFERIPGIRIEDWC
# T2: VapC L43A variant (Salmonella enterica serovar Typhimurium …, UniProt Q8ZM86 1-132, L43A)
# T2 sequence: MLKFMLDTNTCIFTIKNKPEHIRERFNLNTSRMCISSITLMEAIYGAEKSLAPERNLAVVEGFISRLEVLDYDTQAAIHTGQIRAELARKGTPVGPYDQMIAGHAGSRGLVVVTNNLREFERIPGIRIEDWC
# T3: VapC I44A variant (Salmonella enterica serovar Typhimurium …, UniProt Q8ZM86 1-132, I44A)
# T3 sequence: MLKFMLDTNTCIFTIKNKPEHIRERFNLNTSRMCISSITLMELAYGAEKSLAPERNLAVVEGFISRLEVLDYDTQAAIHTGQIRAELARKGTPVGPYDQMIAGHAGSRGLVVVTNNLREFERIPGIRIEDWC
# T4: VapC A76S variant (Salmonella enterica serovar Typhimurium …, UniProt Q8ZM86 1-132, A76S)
# T4 sequence: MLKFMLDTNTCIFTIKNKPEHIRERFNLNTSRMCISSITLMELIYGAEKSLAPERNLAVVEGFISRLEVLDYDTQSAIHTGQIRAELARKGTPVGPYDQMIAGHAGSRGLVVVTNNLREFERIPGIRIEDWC
# T5: VapB;VapC (Salmonella enterica serovar Typhimurium …, UniProt Q7CPV2;Q8ZM86 1-75;1-132, |)
# T5 sequence 1: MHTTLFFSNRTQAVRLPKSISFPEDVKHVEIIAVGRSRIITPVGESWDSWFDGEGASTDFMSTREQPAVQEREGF
# T5 sequence 2: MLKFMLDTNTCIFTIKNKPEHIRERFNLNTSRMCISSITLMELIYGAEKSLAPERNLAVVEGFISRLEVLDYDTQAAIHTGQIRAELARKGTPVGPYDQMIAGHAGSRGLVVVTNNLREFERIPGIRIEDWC
# B1: VapC toxin of Salmonella enterica serovar Typhimurium LT2 (enzyme)
# chain: MLKFMLDTNTCIFTIKNKPEHIRERFNLNTSRMCISSITLMELIYGAEKSLAPERNLAVVEGFISRLEVLDYDTQAAIHTGQIRAELARKGTPVGPYDQMIAGHAGSRGLVVVTNNLREFERIPGIRIEDWC
# Legend:
# [1] = target: the molecule itself
# [2] = target: B1; experiment: native gel or EMSA
# VapC Y72A variant = target: T1, VapC Y72A variant; experiment: native gel or EMSA
# VapC L43A variant = target: T2, VapC L43A variant; experiment: native gel or EMSA
# VapC I44A variant = target: T3, VapC I44A variant; experiment: native gel or EMSA
# VapC A76S variant = target: T4, VapC A76S variant; experiment: native gel or EMSA
# VapB;VapC = target: T5, VapB;VapC; experiment: EMSA
binder,measurement,setting,value
B1,stoichiometry N,[1],2
"VapB antitoxin of Salmonella enterica serovar Typhimurium LT2 (natural protein, UniProt Q7CPV2 1-75, looked up) MHTTLFFSNRTQAVRLPKSISFPEDVKHVEIIAVGRSRIITPVGESWDSWFDGEGASTDFMSTREQPAVQEREGF",binding result,[2],binds
same,binding result,VapC Y72A variant,binds
same,binding result,VapC L43A variant,binds
same,binding result,VapC I44A variant,binds
same,binding result,VapC A76S variant,binds
"vapO1, 36 bp (dsDNA) DNA 1: CTCATAATGGATATACGCGTTGTATATCCAGAAAGG DNA 2: CCTTTCTGGATATACAACGCGTATATCCATTATGAG",binding result,VapB;VapC,binds
